Measurements as given in the supplement of paper PMC12764529.
± gives the half width of the 95% confidence interval.

Assays:
[1] = folding stability dG unfold (combined trypsin and chymotrypsin); higher = more stable
Summary of the method: (§1)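 Unfolding free energy was derived, per protease or combined, by relating Bayesian-fitted K50 values from sequencing counts to a sequence-predicted unfolded-state K50 and a shared folded-state K50. The underlying digests exposed cysteine-free mini-proteins under 80 residues, in a PA-tagged cDNA display construct, to trypsin and chymotrypsin at 11 threefold-diluted concentrations and to a no-protease condition. A filter kept only designs with AlphaFold2 dimer inter-PAE above 15.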

[2] = folding stability dG unfold from chymotrypsin proteolysis; higher = more stable
Summary of the method: as §1

[3] = folding stability dG unfold from trypsin proteolysis; higher = more stable
Summary of the method: as §1

Row | Sequence | folding stability dG unfold [1] [kcal/mol] | folding stability dG unfold [2] [kcal/mol] | folding stability dG unfold [3] [kcal/mol]
1 | SAGGEFRITFMVPADPNDPAVELAKWIADEFMPPGWKVEVDIKVVPSPDGYYMIDIPVEIMPPGQPISAGGS [r16_128_TrROS] | 2.49 ± 0.18 | 2.81 ± 0.047 | 1.71 ± 0.14
2 | SAGGEIAKRFAKYARDAGYDVRVDVEIIPPDEFPGLKPGKPYVIKVEIEVTPPNGPRRPLGEFTIMINSAGG [r13_874_TrROS] | 2.82 ± 0.08 | 3.18 ± 0.046 | 2.13 ± 0.06
3 | SAGGEIEILLEDGTLLRIRVELDEDGNLRVTVELFRLEPPPAPEVVVERREEREERRVLFADSAEDLSAGGS [r16_802_TrROS_Hall] | 1.75 ± 0.15 | 2.27 ± 0.1 | 0.941 ± 0.06
4 | SAGGEIPPNAKIDELEISPGSGYIRIKVEFYDPDGKPIWKMTITIPIKPVPRPSPEDQKEQNKKNKKSAGGS [r16_697_TrROS] | 2.39 ± 0.67 | 2.68 ± 0.12 | 1.36 ± 0.18
5 | SAGGEKDLYLVKYRVEIKNDKGEKKEFPVTAIATSLEELEETLKALTPKNAEAKVEILEVKPLKEVLSSAGG [r13_513_TrMRF] | 1.72 ± 0.1 | 1.55 ± 0.038 | 1.86 ± 0.091
6 | SAGGEKVKLRIYVYRRTVERDPATGELRERYELVEEIEIEVEPGETLEDILAKLKLPPGWRIVRVERESAGG [r13_716_TrROS_Hall] | 5.24 ± 0.076 | 5.424 ± 0.053 | 4.39 ± 0.091
7 | SAGGEKVKRVLVRDKKTKEWREVEVKEAKVEPPPVITIKIELSEEEAKKLAELLRKLFPDAKVTVVKSAGGS [r8_437_TrROS_Hall] | 3.98 ± 0.31 | 3.82 ± 0.24 | 4.15 ± 0.35
8 | SAGGEMELTLTVTIKVENLTKEQIEEELRKLLEELGFEIEEITVEYDEENKTITVTVRIRLPPLEDLSAGGS [r16_287_TrROS_Hall] | 3.15 ± 0.25 | 2.98 ± 0.23 | 3.15 ± 0.27
9 | SAGGEMVEIVVKFKTKEELEAAIRAALPPGATVEVTVEEKDGELYLTITVPKENAERLREALKKALESAGGS [r16_43_TrROS_Hall] | 4.57 ± 0.28 | 4.48 ± 0.13 | 4.2 ± 0.28
10 | SAGGENYTFEMEITIPIPLPNPNGKLKKLPIKVPIEYEYDDPAQRNQAMQNMIMRIIDLALKELGVPSAGGS [r16_339_TrROS] | 1.9 ± 0.16 | 2.12 ± 0.04 | 1.46 ± 0.048
11 | SAGGESYPFIGRNPETNALIEVTVTKLESGEYLVNATITNPNGETVEFPFTFPANSLTPESEIDVTITSAGG [r13_959_TrMRF] | 1.44 ± 0.054 | 1.21 ± 0.074 | 1.65 ± 0.051
12 | SAGGETKTFTIDEIRAKLKEALDNGIDEVRITVFRDGKEEEITIPASKLDEIIASLPPDATVRIERVSAGGS [r16_636_TrROS_Hall] | 1.97 ± 0.13 | 1.86 ± 0.11 | 2.02 ± 0.042
13 | SAGGETVTTESYQPLPTGPGLSFKNVVTTEEDVNNPGVKYTTTEVTAELVNPEGDESTTTTSTVTAASAGGS [r16_217_JUSTAS] | 0.112 ± 0.14 | 0.00547 ± 0.22 | 0.0281 ± 0.035
14 | SAGGEVKYEHEGKNPDNGNMYKQEQEVPPVPIPPVIVIPAEDLDEFRELGIPENFKILPGNGWIVITSAGGS [r16_194_TrROS] | 0.425 ± 0.13 | 0.154 ± 0.25 | 0.44 ± 0.091
15 | SAGGEVRLRLEAELLPDGTLVLRGRVEVRVGDRVFEFEFELVLRLEPVPPPPAPARPLLIPERLLDASAGGS [r8_269_TrMRF] | 2.13 ± 0.12 | 2.4 ± 0.065 | 1.47 ± 0.098
16 | SAGGEWHEISIKFPNPEEIEEALREAFPPGMDVDPDVEPNPNGWEVEIEVPRNNPDRVQNAIKEALDSAGGS [r16_43_TrROS] | 0.492 ± 0.11 | 0.469 ± 0.031 | 0.452 ± 0.035
17 | SAGGEWRKITVPIKYRFPPGESIDSIANELANLPGLKVEVNVEYEKDPDGRYYMEIPVEIEIPPGAPISAGG [r13_590_TrROS] | 0.576 ± 0.12 | 0.669 ± 0.16 | 0.341 ± 0.074
18 | SAGGFEEKVKAGEEVVDVVAPITLPDGTEAVVTRVEPVDDGLLVTLRPPWTGEEVELPLPASEIPKLPSAGG [r13_340_JUSTAS] | 1.11 ± 0.077 | 1.21 ± 0.056 | 1.1 ± 0.057

Row | Sequence | folding stability dG unfold [1] [kcal/mol] | folding stability dG unfold [2] [kcal/mol] | folding stability dG unfold [3] [kcal/mol]
19 | SAGGFEFKAVKLKKNEEKEGELGGAKVRYVSDNKGPVYQVVEFGPEYRALAKVEGDKVELVAVEEGNPSAGG [r13_92_TrMRF] | -0.21 ± 0.16 | 0.00343 ± 0.21 | -1.02 ± 0.66
20 | SAGGFGIKIDEFDPDGEFRISIYDPDTWQPIAEFRIKIKPVPPPPPVEKRPYKDDDGEPKTVTHPDDQSAGG [r13_9_TrROS] | 1.43 ± 0.2 | 1.73 ± 0.19 | 0.542 ± 0.12
21 | SAGGFIRIETPNGKKISPEVREEAEEAIRDGDWDDAVKKISDWLRERFGHPMPIKIEVMMPPPKPPKSAGGS [r8_48_TrROS] | 0.995 ± 0.18 | 1.19 ± 0.11 | 0.547 ± 0.061
22 | SAGGFKIEIEKNPEPDGIVIVIEYDMPPKGIKDFIEELFGPNPKDVTTEEHPNGRTEVTFRIPPGAPSAGGS [r16_605_TrROS] | 0.268 ± 0.3 | 0.33 ± 0.34 | -0.426 ± 0.43
23 | SAGGFTIEFPLPPGESPDEIKDEIMDMVRPIADEHGFKNVKIPITNVRWQPPGRRRFTINIEIKFPGSAGGS [r8_184_TrROS] | 0.727 ± 0.22 | 0.465 ± 0.24 | 0.723 ± 0.16
24 | SAGGGADVISAYDPETVEELSKLPWVTSVTYDPETGRYDIRFERPDGQYNYVVDNVTKEVLEVSPVDSAGGS [r8_251_TrMRF] | 1.3 ± 0.1 | 1.29 ± 0.053 | 1.03 ± 0.07
25 | SAGGGALVLPDPDVPDDLPLVVVDPENGTVTLLHFDRETGRVRARVVRLGDGVPEEEEAVFPVAPDALSAGG [r13_851_TrMRF] | 0.078 ± 0.11 | -0.261 ± 0.18 | 0.242 ± 0.11
26 | SAGGGDLEVELVEEREFTFPDGLRRRLLVVRFPDGFLAIPVYVRPPGGGWRLLARFVLRIGPPRPEEGSAGG [r13_494_TrMRF] | 3.82 ± 0.08 | 4.29 ± 0.043 | 3.22 ± 0.054
27 | SAGGGDWYKVTVKVDGNPEVAEALVEKLLEEVGEEVVFEPRPGEQTVTFYVPKELLPLLEELGIEVEPSAGG [r13_156_TrMRF] | 2.56 ± 0.13 | 2.632 ± 0.02 | 2.24 ± 0.11
28 | SAGGGEKWKIKFKDAEAYINAPEGKVEIVPPDGSKITIDFPPDIPPEVVAKLLAEELGFDEAEIEPVESAGG [r13_852_TrMRF] | 0.168 ± 0.14 | 0.357 ± 0.13 | -0.263 ± 0.085
29 | SAGGGEYYAIVRIEVKDPESEETSELELVIPVEGLSEEEALEIARAIAETFPKENVKAEVEIVPRELSAGGS [r16_774_TrMRF] | 0.936 ± 0.11 | 0.896 ± 0.16 | 1.05 ± 0.043
30 | SAGGGFDPSKLKKEKTLTLTLPGNSETFTIELYLPEDGESTVVFSYNDKNYELTITKDSITLKPVSSSAGGS [r16_711_JUSTAS] | 2.79 ± 0.2 | 3.01 ± 0.045 | 2.38 ± 0.13
31 | SAGGGIVIPVPAETARELLEKLAPDGADVTVESLGSLGGGEVYRATFTDPVFGNTVDIEVLVGPEGGSAGGS [r16_486_TrMRF] | 0.437 ± 0.096 | 0.301 ± 0.13 | 0.392 ± 0.028
32 | SAGGGLANLSLEEIRQLLLEKFPELPVEVKVTPVDEKDGVVLVTVRPPLPDGSTVESEEELPLEPGLSAGGS [r16_564_JUSTAS] | 0.229 ± 0.074 | -1.28 ± 0.41 | 0.661 ± 0.025
33 | SAGGGLEEFARRLAEELARLLGGPNVPFELEGVVVFGFRLRPDGTPEPTTSRPVVVRVRFETPGGDPSAGGS [r16_156_TrMRF] | 3.58 ± 0.1 | 4.09 ± 0.044 | 2.7 ± 0.11
34 | SAGGGLPASDPDVTATTETFTVTYTEATPEGNPVTTTTTTTVTTYTAPDGAVTTTTTTTSTTVTPASTSAGG [r13_51_JUSTAS] | 1.76 ± 0.038 | 1.77 ± 0.023 | 1.7 ± 0.062
35 | SAGGGLSPDTPVNYVVFVELPNGERRTFNVPGPAGRPEVAIAIAEKLREEGYEVKAIFPGEGVIVVGSAGGS [r8_497_TrMRF] | 2.98 ± 0.08 | 3.117 ± 0.0089 | 2.88 ± 0.12
36 | SAGGGMKISTVETKPESDGSIVITIKVYDANGNEIKTYTIPLKGLSNVTITIPVANNPIEVSIPATLSSAGG [r13_427_JUSTAS] | 1.84 ± 0.13 | 2.05 ± 0.078 | 1.48 ± 0.037
